Measured values taken from article PMC4558205 (Structure (London, England : 1993), 2015).

Assays:
crystal structure = target: the molecule itself; assay: crystal structure
[1] = target: Mj0480, archaeal DUF106 protein from Methanocaldococcus jannaschii (Methanocaldococcus jannaschii, UniProt Q57904); assay: SEC

Binder | binding result (crystal structure) | stoichiometry N [1]
Mj0480, archaeal DUF106 protein from Methanocaldococcus jannaschii (natural protein, UniProt Q57904 1-198, looked up) MFGSIFDIYYKTLDAIFMPIIKVLHPALAILIIAIIVSLIINIATKLLVDQKRVAELKKEIQEFQVKFKKMSKNPEMMEKLQEEQQRIMQLNAELMKMSFRPMIYTWVPIILIFIYLRHVYGFGGVYQELNPGWNGVVVYLPIILSKILFIDFWHWLGSIFYKGGFKIVSNTALGWLGWYILCSFATSTVLRKILGIK | binds | 
synthetic antibody fragment (sAB) M1 (Fab, V domains shown) VH: EVQLVESGGGLVQPGGSLRLSCAASGFNFSSSSIHWVRQAPGKGLEWVASISPSYGYTYYADSVKGRFTISADTSKNTAYLQMNSLRAEDTAVYYCARGIWSYWYMVYPHDNYGMDYWGQGTLVTVSS VL: DIQMTQSPSSLSASVGDRVTITCRASQSVSSAVAWYQQKPGKAPKLLIYSASSLYSGVPSRFSGSRSGTDFTLTISSLQPEDFATYYCQQSSSRPVTFGQGTKVEIK |  | 1
